This series has as its target EF-Tu (GTP form) (Escherichia coli K12 MG1655, UniProt P0CE47 1-394). Put plainly: EMSA; GTP; L-Gln-tRNA; Native PAGE EMSA; EF-Tu preincubated with GTP, phosphoenol pyruvate and pyruvate kinase, 20 µl reactions, 3'-32P aminoacyl-tRNA; buffer, salt, pH and temperature not in the material. As to conditions: protein: recombinant; tags: StrepTag or TwinStrep-Tag; label: 3' 32P; tRNA cloverleaf.

Sequence of EF-Tu (GTP form) (P0CE47 whole entry): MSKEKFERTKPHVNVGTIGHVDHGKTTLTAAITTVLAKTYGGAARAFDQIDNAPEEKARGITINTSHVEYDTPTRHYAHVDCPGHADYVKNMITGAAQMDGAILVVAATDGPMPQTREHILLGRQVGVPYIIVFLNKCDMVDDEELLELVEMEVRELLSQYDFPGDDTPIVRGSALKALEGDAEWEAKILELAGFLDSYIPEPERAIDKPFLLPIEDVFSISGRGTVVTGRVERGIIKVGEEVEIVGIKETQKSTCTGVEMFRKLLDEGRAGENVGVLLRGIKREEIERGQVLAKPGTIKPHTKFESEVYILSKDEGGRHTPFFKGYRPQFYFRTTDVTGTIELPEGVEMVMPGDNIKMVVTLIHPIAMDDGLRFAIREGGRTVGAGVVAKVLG

B1: tRNAGly tp (structured_RNA)
RNA: GCGGGCGUAGUUCAAUGGUAGAACGAGAGCUUCCCAAGCUCUAUACGAAGGUUCGAUUCCUUCCGCCCGCUCCA
modifications: 3'-aminoacyl as per row
With B1, the binding result is “binds”.

Values taken from publication PMC4499158, “Outwitting EF-Tu and the ribosome: translation with d-amino acids”.
